Values quoted from earlier work, collected in publication PMC11634773 (Nature, 2024).

Settings: humans, basal insulin

insulin glargine
c.v. for traditional needle-based subcutaneous pen injection: 33%
